Laboratory results taken from patent US20100233157A1 (published 2010).

Columns and labels:
[1] = target: T1, Chimpanzee Fas on the cell surface (chimpanzee, UniProt K6ZIR5 26-335); assay: flow cytometry histograms (FL1-H) on chimpanzee cells (cell type not printed on the sheet), FITC anti-human IgG secondary
T1 construct: also called Fas on chimpanzee B cell line
T1 sequence: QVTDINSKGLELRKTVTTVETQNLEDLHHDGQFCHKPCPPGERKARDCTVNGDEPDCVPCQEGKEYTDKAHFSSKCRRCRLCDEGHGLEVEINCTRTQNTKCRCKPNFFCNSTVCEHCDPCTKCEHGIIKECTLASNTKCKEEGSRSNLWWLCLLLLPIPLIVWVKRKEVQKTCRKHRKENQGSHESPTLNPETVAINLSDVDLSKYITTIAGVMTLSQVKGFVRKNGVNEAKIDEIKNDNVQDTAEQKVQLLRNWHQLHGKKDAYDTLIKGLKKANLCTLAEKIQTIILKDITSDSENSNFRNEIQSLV
Excerpt: Reactivity of F45D9-γ1 or F45D9-γ4 mAb with Fas molecules of various species was initially screened using primary blood cells or lymphocytes cell lines. The binding of F45D9-γ1 or F45D9-γ4 mAb was explored by immunofluoresce staining and flow cytometry analysis, in human PBMC, purified human resting T cells, activated human T cells, peripheral blood lymphocytes (PBL) derived from BALE/c mice, rat, dog and pig, and in B cell lines or PBL derived from common marmoset, cynomolgus macaque, olive baboon, rhesus macaque and chimpanzee. Resting and activated human T cells were prepared as described in Example 7. B cells lines from monkeys were obtained from Biomedical Primate Research Center (Rijswijk, The Netherlands), and were cultured in RPMI 1640 medium supplemented with 2 mM glutamax, 100 UI/mL penicillin, 100 μg/mL streptomycin and 10% fetal bovine serum, at 37° C. and 5% CO₂. After washing in PBS cells (0.2−0.4×10⁶ cells/well) were incubated in staining buffer (PBS/1% FBS) containing F45D9-γ1 or human IgG control antibodies (10-20 ug/ml) in a 96-well U-bottom plate for 30 min on ice, in a 100 ul/well volume. Cells were then washed once with staining buffer, and further incubated for 30 min on ice with 1:30 dilution of FITC-conjugated rabbit F(ab′)₂ anti-human kappa (DakoCytomation Cat. F0434) or FITC-conjugated rabbit F(ab′)₂ anti-human IgG (DakoCytomation Cat. F0056). […]

JPT32 peptide = target: T2, JPT32 peptide (human); assay: peptide microarray (JPT), 50 ug/ml antibody
T2 construct: Peptide of the human Fas peptide scan, immobilized on a glass microarray (JPT peptide technologies)
T2 peptide: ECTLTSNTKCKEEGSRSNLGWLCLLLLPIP
Experimental: (§1) Epitope mapping of F45D9-γ1 and F45D9-γ4 mAb was done using peptide microarrays from JPT peptide technologies. The microarray is composed of several different peptide scans of TNR6_Human protein (FAS molecule, accession number P25445; Oehm A. et al. J. Biol. Chem. 267:10709, 1992), immobilized on a glass surface. The microarrays were pre-treated 2 h at room temperature with blocking buffer (Pierce, Superblock), followed by washings with TBS buffer, pH 8.0 and water (3 times each). Pre-treated arrays were scanned using Axon-4000B-Microarray Scanner for background control. […] Control incubation with secondary antibody only was performed in parallel. All microarrays were scanned using Axon-4000B-Microarray Scanner with appropriate wavelength settings. SPOT recognition software package ArrayPro was used for data analysis. Mean of signal intensities from 3 identical subarrays on each microarray image were used for data evaluation.

JPT33 peptide = target: T3, JPT33 peptide (human); assay: peptide microarray (JPT), 50 ug/ml antibody
T3 construct: Peptide of the human Fas peptide scan, immobilized on a glass microarray (JPT peptide technologies)
T3 peptide: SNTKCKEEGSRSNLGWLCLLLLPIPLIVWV
Experimental: as §1

JPT31 peptide = target: T4, JPT31 peptide (human); assay: peptide microarray (JPT), 50 ug/ml antibody
T4 construct: Peptide of the human Fas peptide scan, immobilized on a glass microarray (JPT peptide technologies)
T4 peptide: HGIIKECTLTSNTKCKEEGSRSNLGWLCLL
Experimental: as §1

binding result [1]: binds
binding result (JPT32 peptide): binds
binding result (JPT33 peptide): binds
binding result (JPT31 peptide): binds
B1: F45D9-γ1 mAb (recombinant human mAb T17/B2-1G4, gamma-1 isotype) (antibody, V domains shown)
VH: QVQLQQWGAGLLKPSETLSLICAVYGGSFSTYYWTWIRQPPGKGLEWIGEINHRGTTNYSPSLKSRVTISVDTSKNHISLNLTSVTAADTALYYCARGLLWIGEGDYGLDVWGQGTTVTVSS
VL: DIQMTQSPSSLSASVGDRVTITCRASQGIRRWLAWYQQKPEKAPKSLIYAASSLQSGVPSRFSGSGSGTDFTLTISSLQPEDFATYYCQQYNSYPYTFGQGTKLEIKR
notes: Whole human IgG1 (γ1fa allotype) with human kappa light chain, made in CHO DG44 cells; also called IgG1; T17/L18/B2-1G4
